The record followed here is publication PMC8590011, “WRN helicase safeguards deprotected replication forks in BRCA2-mutated cancer cells”.

For this series, the target named is FLAG-WRN K577M/E84A (UniProt Q14191 1-1432, E84A;K577M). The series is described as follows: EMSA; 2 mM ATPgS, 5 mM MgCl2; affinity similar to WT; Kd is only in Supp Fig 1e, value not in material; 35 mM Tris-HCl pH 7.5, 20 mM KCl, 5 mM MgCl2, 0.1 mg/ml BSA, 2 mM DTT, 5% glycerol, 2 mM ATPgS, 2 nM DNA, 15 min at RT; 5% 1x TBE native PAGE at 4 C. As to conditions: protein: recombinant; tags: N-terminal FLAG (6xHis removed with TEV); label: 5' 32P on oligo B (as described for the CF preparation); four-strand regressed fork: AB partial duplex annealed to CD partial duplex.
Sequence of FLAG-WRN K577M/E84A (Q14191 whole entry E84A/K577M): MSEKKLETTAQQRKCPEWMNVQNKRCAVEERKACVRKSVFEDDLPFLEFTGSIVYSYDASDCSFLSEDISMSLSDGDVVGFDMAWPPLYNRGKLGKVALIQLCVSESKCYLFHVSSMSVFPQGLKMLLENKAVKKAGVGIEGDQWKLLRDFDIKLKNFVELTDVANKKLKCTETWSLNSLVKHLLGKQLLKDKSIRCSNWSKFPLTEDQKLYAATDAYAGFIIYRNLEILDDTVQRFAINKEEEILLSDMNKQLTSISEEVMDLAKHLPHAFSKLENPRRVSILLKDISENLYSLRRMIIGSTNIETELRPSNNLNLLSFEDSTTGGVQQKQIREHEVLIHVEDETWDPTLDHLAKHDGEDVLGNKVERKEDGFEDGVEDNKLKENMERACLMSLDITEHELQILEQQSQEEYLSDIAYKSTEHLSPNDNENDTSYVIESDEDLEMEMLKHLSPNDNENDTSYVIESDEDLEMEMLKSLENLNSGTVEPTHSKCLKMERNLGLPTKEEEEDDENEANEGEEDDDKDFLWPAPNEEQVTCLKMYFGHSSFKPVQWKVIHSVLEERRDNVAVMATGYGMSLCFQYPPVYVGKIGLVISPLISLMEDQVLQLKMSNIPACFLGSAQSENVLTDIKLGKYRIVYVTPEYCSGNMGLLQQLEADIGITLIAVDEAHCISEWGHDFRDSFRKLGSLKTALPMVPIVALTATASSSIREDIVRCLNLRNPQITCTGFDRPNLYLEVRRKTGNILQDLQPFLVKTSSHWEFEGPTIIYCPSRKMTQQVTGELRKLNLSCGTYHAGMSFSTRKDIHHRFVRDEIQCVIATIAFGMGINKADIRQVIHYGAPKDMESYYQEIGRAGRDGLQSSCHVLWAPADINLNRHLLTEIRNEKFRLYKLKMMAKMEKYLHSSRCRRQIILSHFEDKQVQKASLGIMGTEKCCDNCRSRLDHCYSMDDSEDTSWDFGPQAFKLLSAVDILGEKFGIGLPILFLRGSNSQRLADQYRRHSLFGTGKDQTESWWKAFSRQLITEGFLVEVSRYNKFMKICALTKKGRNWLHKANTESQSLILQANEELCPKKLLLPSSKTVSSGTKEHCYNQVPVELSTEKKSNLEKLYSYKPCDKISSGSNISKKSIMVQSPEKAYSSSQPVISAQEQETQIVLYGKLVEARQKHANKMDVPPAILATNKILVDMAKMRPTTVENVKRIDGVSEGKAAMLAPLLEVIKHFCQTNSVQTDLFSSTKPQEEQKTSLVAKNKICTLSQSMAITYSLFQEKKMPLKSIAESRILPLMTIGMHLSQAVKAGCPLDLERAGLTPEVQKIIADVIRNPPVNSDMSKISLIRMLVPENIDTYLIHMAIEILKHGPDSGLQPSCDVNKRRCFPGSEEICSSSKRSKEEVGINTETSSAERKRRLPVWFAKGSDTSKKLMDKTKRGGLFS

B1: chicken-foot (CF) reversed fork substrate, oligos A+B+C+D (structured_DNA)
DNA 1: CTTTAGCTGCATATTTACAACATGTTGACCTTCAGTACAATCTGCTCTGATGCCGCATAGTGTCATGCCAGAGCTTTGTAC
DNA 2: CGGGTGTCGGGGCGCATGACACTATGCGGCATCAGAGCAGATTGTACTGAAGGTCAACATGTTGTAAATATGCAGCTAAAG
DNA 3: GTACAAAGCTCTGGCATGATACTATGCGGCATCAGAGCAGATT
DNA 4: TCAGTACAATCTGCTCTGATGCCGCATAGTATCATGCGCCCCGACACCCG
modifications: iMe-isodC at position 38 of oligo A (written as C)
As to B1, the binding result was “binds”.
